Results: patent US20160185837A1 (AstraZeneca / MedImmune, published 2016)
Where two headings read alike, the source gives them in different places.

T1: human GIP receptor (human, UniProt P48546 22-466)
T1 sequence (looked up): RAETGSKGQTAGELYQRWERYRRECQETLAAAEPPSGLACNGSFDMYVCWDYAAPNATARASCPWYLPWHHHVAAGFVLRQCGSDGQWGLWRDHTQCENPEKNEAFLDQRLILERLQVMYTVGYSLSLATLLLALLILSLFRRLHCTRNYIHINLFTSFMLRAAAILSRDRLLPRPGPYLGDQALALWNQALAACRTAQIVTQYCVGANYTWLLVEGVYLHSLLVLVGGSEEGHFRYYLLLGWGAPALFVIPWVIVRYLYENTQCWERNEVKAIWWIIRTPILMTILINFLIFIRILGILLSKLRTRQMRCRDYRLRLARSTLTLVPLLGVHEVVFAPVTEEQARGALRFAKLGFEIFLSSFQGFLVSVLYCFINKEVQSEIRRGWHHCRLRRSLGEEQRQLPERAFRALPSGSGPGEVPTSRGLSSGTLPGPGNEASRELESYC

T2: rat GLP-1 receptor (rat, UniProt P32301 22-463)
T2 sequence (looked up): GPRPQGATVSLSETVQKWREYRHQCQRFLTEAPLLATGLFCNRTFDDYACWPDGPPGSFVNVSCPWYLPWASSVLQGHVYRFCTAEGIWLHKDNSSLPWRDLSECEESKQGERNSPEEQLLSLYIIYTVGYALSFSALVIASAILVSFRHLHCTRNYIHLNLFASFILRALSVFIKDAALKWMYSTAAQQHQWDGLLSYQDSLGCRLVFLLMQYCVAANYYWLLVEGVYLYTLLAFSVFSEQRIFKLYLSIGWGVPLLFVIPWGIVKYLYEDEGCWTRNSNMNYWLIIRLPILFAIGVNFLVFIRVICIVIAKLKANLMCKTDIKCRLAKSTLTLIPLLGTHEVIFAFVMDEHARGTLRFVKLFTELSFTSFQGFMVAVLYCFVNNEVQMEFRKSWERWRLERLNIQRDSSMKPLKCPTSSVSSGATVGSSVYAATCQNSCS

T3: mouse GIP receptor (mouse, UniProt Q0P543 19-460)
T3 sequence (looked up): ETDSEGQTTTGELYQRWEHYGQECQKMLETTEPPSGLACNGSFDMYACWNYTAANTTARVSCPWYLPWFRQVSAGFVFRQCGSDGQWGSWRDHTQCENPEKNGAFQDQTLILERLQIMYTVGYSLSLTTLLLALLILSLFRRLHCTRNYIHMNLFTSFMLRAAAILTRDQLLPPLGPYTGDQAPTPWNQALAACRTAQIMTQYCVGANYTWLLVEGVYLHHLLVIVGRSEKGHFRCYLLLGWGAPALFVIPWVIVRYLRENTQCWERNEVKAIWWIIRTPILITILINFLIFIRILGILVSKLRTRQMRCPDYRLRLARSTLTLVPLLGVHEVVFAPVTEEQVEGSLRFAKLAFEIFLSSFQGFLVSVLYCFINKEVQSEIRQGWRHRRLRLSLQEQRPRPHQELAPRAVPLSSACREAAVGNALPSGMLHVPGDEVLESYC

T4: rat GIP receptor (rat, UniProt P43219 19-455)
T4 sequence (looked up): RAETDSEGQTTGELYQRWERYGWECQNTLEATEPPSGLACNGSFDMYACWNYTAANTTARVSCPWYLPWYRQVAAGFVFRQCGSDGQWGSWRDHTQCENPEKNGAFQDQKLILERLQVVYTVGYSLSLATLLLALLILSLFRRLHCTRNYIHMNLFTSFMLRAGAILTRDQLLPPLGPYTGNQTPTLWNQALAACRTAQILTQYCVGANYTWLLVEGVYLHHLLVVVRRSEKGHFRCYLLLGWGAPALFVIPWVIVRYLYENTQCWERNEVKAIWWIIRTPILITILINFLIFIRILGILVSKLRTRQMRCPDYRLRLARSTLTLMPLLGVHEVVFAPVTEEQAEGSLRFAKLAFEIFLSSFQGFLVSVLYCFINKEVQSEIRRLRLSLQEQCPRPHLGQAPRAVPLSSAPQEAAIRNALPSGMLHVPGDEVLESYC

T5: mouse GLP-1 receptor (mouse, UniProt O35659 22-463)
T5 sequence (looked up): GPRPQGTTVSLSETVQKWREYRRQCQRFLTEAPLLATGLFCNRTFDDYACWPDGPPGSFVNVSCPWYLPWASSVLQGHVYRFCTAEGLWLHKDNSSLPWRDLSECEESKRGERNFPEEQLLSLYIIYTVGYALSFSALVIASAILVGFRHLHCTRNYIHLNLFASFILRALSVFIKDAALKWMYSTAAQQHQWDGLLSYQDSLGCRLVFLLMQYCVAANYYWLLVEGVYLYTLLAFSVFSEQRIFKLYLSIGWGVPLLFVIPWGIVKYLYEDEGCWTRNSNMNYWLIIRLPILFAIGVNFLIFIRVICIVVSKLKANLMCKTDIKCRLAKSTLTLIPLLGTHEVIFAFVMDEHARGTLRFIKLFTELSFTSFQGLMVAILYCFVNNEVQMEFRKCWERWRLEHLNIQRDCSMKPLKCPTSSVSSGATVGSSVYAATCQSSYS

B1: IP317 (Fc fusion)
chain: YSEGTFTSDVSSYLEKQAIDEFIAWLLKGGAAAGGSGSTASSGSGSATGGGGAATHTCPPC
B2: IP088 (Fc fusion)
chain: YSEGTFTSDYSKLLEEEAVRLFIEWLVKGPAAAGGSGSTASSGSGSATGGGGAATHTCPPCPAPEF

Experiments:
Experiment in all cases: cell-based or functional assay
human GIP receptor [1] = target: T1, human GIP receptor
human GLP-1 receptor [2] = target: T6, human GLP-1 receptor (human, UniProt P43220 24-463)
rat GLP-1 receptor [3] = target: T2, rat GLP-1 receptor
human glucagon receptor = human glucagon receptor (human, UniProt P47871 26-477)
mouse GIP receptor [4] = target: T3, mouse GIP receptor
rat GIP receptor = target: T4, rat GIP receptor
mouse GLP-1 receptor [5] = target: T5, mouse GLP-1 receptor
human GIP receptor [6] = target: T1, human GIP receptor; remark: listed apart in the source
human GLP-1 receptor [7] = target: T6, human GLP-1 receptor; remark: listed apart in the source
rat GLP-1 receptor [8] = target: T2, rat GLP-1 receptor; remark: listed apart in the source
mouse GIP receptor [9] = target: T3, mouse GIP receptor; remark: listed apart in the source
mouse GLP-1 receptor [10] = target: T5, mouse GLP-1 receptor; remark: listed apart in the source
[11] = target: cynomolgus monkey glucagon receptor (cynomolgus monkey)
[12] = target: cynomolgus monkey GLP-1 receptor (cynomolgus monkey, UniProt F8V479 24-463)

Binder | cAMP EC50 (human GIP receptor [1]) [nM] | cAMP EC50 (human GLP-1 receptor [2]) [nM] | cAMP EC50 (rat GLP-1 receptor [3]) [nM] | cAMP EC50 (human glucagon receptor) [nM] | cAMP EC50 (mouse GIP receptor [4]) [nM] | cAMP EC50 (rat GIP receptor) [nM] | cAMP EC50 (mouse GLP-1 receptor [5]) [nM] | cAMP EC50 (human GIP receptor [6]) [nM] | cAMP EC50 (human GLP-1 receptor [7]) [nM] | cAMP EC50 (rat GLP-1 receptor [8]) [nM] | cAMP EC50 (mouse GIP receptor [9]) [nM] | cAMP EC50 (mouse GLP-1 receptor [10]) [nM] | cAMP EC50, 4.2% cyno serum albumin [11] [nM] | cAMP EC50, 4.2% cyno serum albumin [12] [nM]
B1 | 0.11 | 0.13 | 0.012 | > 5550 | 86 | 5.3 | 0.33 |  |  |  |  |  |  | 
B2 | 0.0078 | 0.076 | 0.033 | 460 | 86 | 0.1 | 0.31 | 0.016 | 0.222 | 0.038 | 137 | 0.42 | > 1000 | 0.19
